The values that follow are results of earlier work, collected in article PMC2409454.

As usually defined, the Kd is the constant that tells how readily two partners part at equilibrium.

The data set concerns the target pRb (Homo sapiens) (UniProt P06400).
UniProt P06400, sequence (P06400 2-928): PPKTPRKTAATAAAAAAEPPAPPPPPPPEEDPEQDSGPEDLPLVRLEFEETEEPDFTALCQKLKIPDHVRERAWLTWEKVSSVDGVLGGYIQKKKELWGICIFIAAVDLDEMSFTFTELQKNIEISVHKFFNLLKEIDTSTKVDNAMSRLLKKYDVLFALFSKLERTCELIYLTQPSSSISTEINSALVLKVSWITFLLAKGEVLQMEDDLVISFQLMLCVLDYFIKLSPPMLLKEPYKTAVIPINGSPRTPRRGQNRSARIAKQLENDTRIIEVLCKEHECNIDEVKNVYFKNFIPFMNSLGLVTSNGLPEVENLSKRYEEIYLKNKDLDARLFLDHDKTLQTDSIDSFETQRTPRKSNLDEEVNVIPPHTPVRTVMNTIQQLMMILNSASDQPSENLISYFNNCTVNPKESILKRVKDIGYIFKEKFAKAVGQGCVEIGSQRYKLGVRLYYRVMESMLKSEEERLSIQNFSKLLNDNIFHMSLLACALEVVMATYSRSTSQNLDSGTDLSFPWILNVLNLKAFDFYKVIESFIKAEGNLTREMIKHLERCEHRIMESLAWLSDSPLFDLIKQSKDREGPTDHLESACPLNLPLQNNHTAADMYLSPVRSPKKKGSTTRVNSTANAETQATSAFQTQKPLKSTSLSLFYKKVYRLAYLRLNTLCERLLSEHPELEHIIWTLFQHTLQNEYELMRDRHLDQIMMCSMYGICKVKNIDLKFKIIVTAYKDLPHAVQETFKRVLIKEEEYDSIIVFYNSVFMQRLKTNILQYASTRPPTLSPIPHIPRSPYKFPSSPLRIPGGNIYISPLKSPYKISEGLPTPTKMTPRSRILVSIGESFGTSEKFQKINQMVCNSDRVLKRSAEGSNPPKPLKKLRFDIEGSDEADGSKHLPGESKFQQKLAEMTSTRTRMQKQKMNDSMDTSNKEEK

In the case of E7 (from UniProt P03129), the dissociation constant (Kd) is 4.5 nM.
